Laboratory results from publication PMC6175940, “Increasing the distance between two monomers of topoisomerase IIβ under the action of antitumor agent 4β-sulfur-(benzimidazole) 4′-demethylepipodophyllotoxin”.

Molecular target: hTop2βcore (human topoisomerase IIβ catalytic core) (human, UniProt Q02880 450-1206)
Assay: X-ray crystallography (2.54 Å); 100 mM MgCl2; crystallized with 2 mM compound C-Bi (not visible in the structure); cleavage complex; Crystallization: protein and DNA (1.2-fold molar ratio to protein) with 2 mM C-Bi; reservoir 100 mM MgCl2, 50 mM sodium citrate pH 5.3, 20% MPD, 0.05% ethyl acetate, 4 °C; protein buffer 30 mM Tris-HCl pH 7.5, 70 mM NaCl, 2 mM β-mercaptoethanol, 1 mM EDTA
Conditions: protein: recombinant; chain copies: 2; blunt; self-complementary, 2 copies of the same strand

Sequence of hTop2βcore (human topoisomerase IIβ catalytic core) (Q02880 450-1206): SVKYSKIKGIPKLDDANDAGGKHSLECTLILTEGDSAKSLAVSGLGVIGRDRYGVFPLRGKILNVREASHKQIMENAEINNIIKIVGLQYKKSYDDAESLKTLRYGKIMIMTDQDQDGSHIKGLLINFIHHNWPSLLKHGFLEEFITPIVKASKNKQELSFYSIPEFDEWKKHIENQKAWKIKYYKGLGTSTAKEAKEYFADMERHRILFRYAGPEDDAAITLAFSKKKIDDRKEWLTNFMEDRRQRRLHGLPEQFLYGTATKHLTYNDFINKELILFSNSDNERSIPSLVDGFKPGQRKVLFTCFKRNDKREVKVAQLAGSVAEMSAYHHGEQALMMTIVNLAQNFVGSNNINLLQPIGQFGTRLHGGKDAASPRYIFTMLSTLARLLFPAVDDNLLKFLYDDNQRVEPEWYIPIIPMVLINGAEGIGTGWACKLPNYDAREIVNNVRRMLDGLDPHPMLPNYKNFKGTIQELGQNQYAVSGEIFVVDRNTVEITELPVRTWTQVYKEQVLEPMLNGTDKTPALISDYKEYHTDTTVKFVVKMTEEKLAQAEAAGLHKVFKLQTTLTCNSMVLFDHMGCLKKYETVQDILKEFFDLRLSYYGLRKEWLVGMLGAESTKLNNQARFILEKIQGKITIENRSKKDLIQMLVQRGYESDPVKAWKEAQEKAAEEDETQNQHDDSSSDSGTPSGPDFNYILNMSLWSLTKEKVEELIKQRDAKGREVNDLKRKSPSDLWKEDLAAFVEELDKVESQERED

B1: 20-bp DNA substrate for crystallography (dsDNA)
DNA 1: AGCCGAGCTGCAGCTCGGCT
DNA 2: AGCCGAGCTGCAGCTCGGCT
binding result: binds
